Assay results: patent publication US20160310607A1, “CELL TRANSPORT” (CUPID PEPTIDE COMPANY LIMITED, priority 2013, published 2016)

How the values were obtained:
[1] = test system: Dictyostelium discoideum amoeba cells; test: Permeation of FITC-labelled peptides into cultured Dictyostelium cells (fluorescence microscopy); type: cell-based; conditions: FITC-labelled peptide, 20 micromolar, 1 hour
Procedure: Peptides were labelled with Fluorescein isothiocyanate (FITC) using a FITC labeling kit as per instructions (Pierce, UK). When added to cell cultures the labeled peptides were visualized using a fluorescent microscope by exciting the FITC with a 488 nm spectral line, argon-ion laser (Excitation wavelength of 494 nm and an Emission wavelength of 518 nm).
AX2 wild type Dictyostelium cells were grown on SM agar plates seeded with Aerobacter aerogenes bacteria (also known as Klebsiella aerogenes) as a food source.
Cupid A ([…]) and Cupid B ([…]) were chemically synthesized labelled with FITC at the amino terminal. The peptides were added to cultured eukaryotic cells of Dictyostelium discoideum amoeba for varying amounts of time up to 2 hours. Cells were then washed and prepared for examination under a fluorescent microscope (FIG. 1). The time courses of permeation were compared to the class 3 CPP, the Antennapedia peptide, pANT which was also labelled with FITC in chemical synthesis (FIG. 2).

PTEN [2] = test: Inositol phospholipid levels in starving Dictyostelium cells (solvent extraction, thin layer chromatography); type: cell-based, Dictyostelium discoideum; conditions: 10 micromolar, 1 hour, starving wild-type Dictyostelium
Procedure: FIG. 9. The levels of the 4 inositol phospholipids (PI, PIP, PIP2 and PIP3) in wild-type Dictyostelium cells undergoing starvation were measured by solvent extraction of cell cultures and analysis using thin layer chromatography. The effect of Cupid B-PTEN peptide treatment (10 micromolar, 1 hour) was calculated as a percentage change in the basal (untreated) levels.
The PTEN protein has a phospholipase enzymatic activity that functions to remove phosphate groups from inositol-based lipids and as such is involved with maintaining the balance between varieties of inositol phospholipids present at the cell surface. In wild-type cells undergoing starvation the inositol phospholipids with 3 and 4 phosphate groups (PIP2 and PIP3) are kept low, largely due to the action of PTEN.
We determined the effect of Cupid B-PTEN peptide on the inositol phospholipid levels in Dictyostelium cultures. Cupid B-PTEN peptide treated cells (10 micromolar, 1 hour) alters the basal levels of inositol phospholipids in Dictyostelium cells.

PTEN [3] = test: Protein phosphorylation response to cyclic AMP in starving Dictyostelium cultures (antibody detection on SDS gels); type: cell-based, Dictyostelium discoideum; conditions: pre-treated for 1 hour with 10 micromolar peptide
Description: FIG. 10. In starving Dictyostelium cultures, several proteins undergo rapid phosphorylation/dephosphorylation events in response to an applied dose of cyclic AMP. The strength of this response is limited by PTEN enzyme activity. This response is visualised with antibody detection of these phosphoproteins on SDS gels prepared from extracted cultures at the time points indicated after the cAMP dose.
In starving Dictyostelium cultures, several proteins undergo rapid phosphorylation/dephosphorylation events in response to an applied dose of cyclic AMP. The strength of this initial phosphorylation response is limited by PTEN enzyme activity and is associated with changes in PIP2 and PIP3 inositol phospholipid levels.

PTEN [4] = test: Streaming and aggregation of starved wild-type Dictyostelium cultures compared with the PTEN null mutant; type: cell-based, Dictyostelium discoideum; conditions: 10 micromolar, wild-type cells, visualised after 10 hours
Procedure: FIG. 8. Cupid can transport large molecule cargo into the cell. Starved Dictyostelium cultures were plated into petri dishes in starvation buffer and visualised after 10 hours. In untreated wild-type (WT) cultures (A), cells stream together into aggregation centres, co-ordinated by cell to cell signaling.
In Dictyostelium, a genetic mutant in which the PTEN gene is absent causes marked changes in phenotype.

B1: Cupid B-PTEN: Cupid B fused to a 167 amino acid region (C2 region, 186-352) of human PTEN, with 6x Histidine (protein)
chain: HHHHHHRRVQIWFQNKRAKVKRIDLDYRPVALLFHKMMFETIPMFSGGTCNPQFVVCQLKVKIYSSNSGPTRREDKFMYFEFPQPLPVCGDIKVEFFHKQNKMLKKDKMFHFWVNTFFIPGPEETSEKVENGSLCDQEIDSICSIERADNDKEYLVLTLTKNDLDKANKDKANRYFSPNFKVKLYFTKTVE
modifications: FITC label
notes: Cupid B fused to a 167 amino acid region (C2 region, 186-352) of human PTEN, with 6x Histidine
[1]
  cell permeation (fluorescence microscopy): cell permeable
PTEN [2]
  change of PIP2 level relative to untreated basal level: +75%
  change of PIP3 level relative to untreated basal level: +150%
PTEN [3]
  initial phosphorylation response to cyclic AMP versus untreated cultures: much stronger initial phosphorylation response
PTEN [3]; listed as Cupid-PTEN
  initial phosphorylation response to cyclic AMP versus untreated cultures: much greater phosphorylation response
PTEN [4]
  streaming/aggregation behaviour of starved wild-type Dictyostelium: exhibit the same distinctive behaviour as the PTEN-Null strain
PTEN [4]; listed as Cupid-PTEN
  streaming/aggregation behaviour of starved wild-type Dictyostelium: cells failed to stream together or aggregate
